One block for each binder: values may come before it.
Legend:
[1] = target: T1, IL-2Rα in a human Fc fusion protein format (ACROBiosystems) (human, UniProt P01589 22-213, limits assumed); test: ELISA; EC50 on IL-2Rα over EC50 on IL-2Rβγ (reference)
T1 construct: Bought reagent; also called CD25; not shown: human Fc (captured by anti-human IgG Fc)
T1 sequence (looked up): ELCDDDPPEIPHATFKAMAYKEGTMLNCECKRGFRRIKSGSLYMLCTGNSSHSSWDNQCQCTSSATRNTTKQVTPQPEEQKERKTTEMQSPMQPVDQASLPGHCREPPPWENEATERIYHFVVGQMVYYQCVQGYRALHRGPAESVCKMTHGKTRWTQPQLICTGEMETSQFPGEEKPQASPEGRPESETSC
Experimental: (§1) IL-2Rα and IL-2R βγ-human Fc fusion protein constructs (ACRO Biosystems) were each expressed and immobilized by anti-Human IgG Fc (abeam), which were then captured on the surface of wells of a microplate. […] Binding was detected using anti-His or anti-PEG antibody conjugated to horse radish peroxidase (HRP) (Genscript), which was incubated with substrate. The quantification of binding was measured with an absorbance-based microplate reader. Data were analyzed by Graphpas prism9 Software.

[2] = target: T1, IL-2Rα in a human Fc fusion protein …; test: ELISA, receptor-Fc captured by anti-human IgG Fc, anti-His-HRP detection
Experimental: as §1

[3] = target: T2, IL-2Rβγ-human Fc fusion protein construct (ACRO Biosystems) (human, UniProt P14784 27-239; P31785 23-262, limits assumed); test: as above
T2 construct: not shown: human Fc
T2 sequence (looked up) 1: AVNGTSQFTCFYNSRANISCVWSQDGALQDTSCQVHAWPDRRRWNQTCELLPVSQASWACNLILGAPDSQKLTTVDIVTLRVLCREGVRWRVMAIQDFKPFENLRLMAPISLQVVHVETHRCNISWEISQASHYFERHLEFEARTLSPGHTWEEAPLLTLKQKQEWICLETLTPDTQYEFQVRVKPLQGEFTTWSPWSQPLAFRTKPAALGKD
T2 sequence (looked up) 2: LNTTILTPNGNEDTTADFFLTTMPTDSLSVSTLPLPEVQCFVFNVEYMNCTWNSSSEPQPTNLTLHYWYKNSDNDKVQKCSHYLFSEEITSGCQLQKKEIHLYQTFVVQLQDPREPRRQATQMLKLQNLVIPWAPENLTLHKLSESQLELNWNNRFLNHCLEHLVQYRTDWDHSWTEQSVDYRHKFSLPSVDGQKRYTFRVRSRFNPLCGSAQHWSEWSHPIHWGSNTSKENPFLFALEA
Experimental: as §1

[4] = target: T3, IL2R αβγ; test: biosensor kinetics, receptor as ligand on the sensor, IL-2 protein as sample, 1:1 Binding model (legend: Octet QKe; table heads give RU)
T3 construct: Cell-free IL-2Rαβγ on a biosensor; not the cell-borne receptors m18 and m19; also called IL-2Rαβγ (ligand on the sensor)

[5] = target: T1, IL-2Rα in a human Fc fusion protein …; test: as above
[6] = target: T2, IL-2Rβγ-human Fc fusion protein …; test: as above
[7] = target: T1, IL-2Rα in a human Fc fusion protein …; test: BLI (Octet QKe), IL-2Rα-Fc captured on AHC sensors, 1:1 fit
From the text: IL-2Rα or IL-2Rβ in a human Fc fusion protein format (ACROBiosystems) were captured on anti-human IgG Fc capture (AHC) sensors. […] Dissociation was detected following transfer of sensors into wells containing buffer alone. Data were collected and analyzed by the Octet User Software. For analysis of the kinetics constants, a 1:1 curve fitting model was used.

B1: ACT5210, IL-2 mutein Y31C + L18M + L19S (ligand)
chain: APTSSSTKKTQLQLEHLMSDLQMILNGINNCKNPKLTRMLTFKFYMPKKATELKHLQCLEEELKPLEEVLNLAQSKNFHLRPRDLISNINVIVLELKGSETTFMCEYADETATIVEFLNRWITFSQSIISTLT
notes: Not PEGylated; rhIL-2 (C125S) background; also called His-conjugated IL-2 mutein (ACT5210); not shown: His-Tag
Ratio (α/βγ) of EC50 [1]: 0.06
EC50 [2]: 0.0025 µg/mL
EC50 [3]: 0.0396 µg/mL
Kd [4]: 0.0113 nM
koff [4]: 0.000281 s⁻¹
kon [4]: 2.48e+07 M⁻¹ s⁻¹
Kd [5]: 28.4 nM
koff [5]: 0.164 s⁻¹
kon [5]: 5.75e+06 M⁻¹ s⁻¹
Kd [6]: 1.04 nM
koff [6]: 0.000837 s⁻¹
kon [6]: 807000 M⁻¹ s⁻¹

B4: ACT5281, IL-2 mutein Y31C + V69A + Q74P + N88R (PEG20K) (ligand)
chain: APTSSSTKKTQLQLEHLLLDLQMILNGINNCKNPKLTRMLTFKFYMPKKATELKHLQCLEEELKPLEEALNLAPSKNFHLRPRDLISRINVIVLELKGSETTFMCEYADETATIVEFLNRWITFSQSIISTLT
modifications: maleimide-PEG 20K on Cys 31
notes: rhIL-2 (C125S) background; also called Y31C - PEG20 + V69A + Q74P + N88R; not shown: His-Tag
Kd [7]: 10.6 nM
koff [7]: 0.0037 s⁻¹
kon [7]: 345000 M⁻¹ s⁻¹

B5: IL-2 mutein Y31C - PEG20 + N30A (ligand)
chain: APTSSSTKKTQLQLEHLLLDLQMILNGINACKNPKLTRMLTFKFYMPKKATELKHLQCLEEELKPLEEVLNLAQSKNFHLRPRDLISNINVIVLELKGSETTFMCEYADETATIVEFLNRWITFSQSIISTLT
modifications: maleimide-PEG 20K on Cys 31
notes: not shown: His-Tag
Kd [7]: 37.3 nM
koff [7]: 0.0194 s⁻¹
kon [7]: 520000 M⁻¹ s⁻¹

Continued, values first:

Kd [7]: 8.86 nM
koff [7]: 0.0035 s⁻¹
kon [7]: 393000 M⁻¹ s⁻¹
B2: IL-2 mutein Y31C - PEG20 + V69A + Q74P + I128T (ligand)
chain: APTSSSTKKTQLQLEHLLLDLQMILNGINNCKNPKLTRMLTFKFYMPKKATELKHLQCLEEELKPLEEALNLAPSKNFHLRPRDLISNINVIVLELKGSETTFMCEYADETATIVEFLNRWITFSQSTISTLT
modifications: maleimide-PEG 20K on Cys 31
notes: not shown: His-Tag

Kd [7]: 7.38 nM
koff [7]: 0.0043 s⁻¹
kon [7]: 581000 M⁻¹ s⁻¹
B3: ACT5261, IL-2 mutein Y31C + L18M + L19S + V69A + Q74P (PEG20K) (ligand)
chain: APTSSSTKKTQLQLEHLMSDLQMILNGINNCKNPKLTRMLTFKFYMPKKATELKHLQCLEEELKPLEEALNLAPSKNFHLRPRDLISNINVIVLELKGSETTFMCEYADETATIVEFLNRWITFSQSIISTLT
modifications: maleimide-PEG 20K on Cys 31
notes: rhIL-2 (C125S) background; also called Y31C - PEG20 + L18M + L19S + V69A + Q74P; not shown: His-Tag

From patent US20240010697A1 (CYTIMM THERAPEUTICS, published 2024)
